Article PMC9730764

Key:
[1] = biological target: Bacillus subtilis cysteine desulfurase SufS (B. subtilis) (UniProt O32164)
[2] = biological target: Staphylococcus aureus cysteine desulfurase SufS (S. aureus USA300_LAC)

With “Staphylococcus aureus sulfurtransferase SufU (from UniProt A0ABV4SS75 2-153) (natural protein)” the stimulation factor of SufS cysteine desulfurase activity by SufU [1] was 15 and the stimulation factor of SufS cysteine desulfurase activity by SufU [2] was 1.5.
